Test results published in US20240270846A1 (published 2024).

B1: CE115HA000/GLS3000 V51G one-arm antibody (antibody, human IgG1, kappa, L234A L235A, N297A, name in Kabat numbering)
heavy: QVQLVESGGGVVQPGRSLRLSCAASGFTFSNAWMHWVRQAPGKGLEWVAQIKAKSNNYATYYAESVKGRFTISRDDSKNSLYLQMNSLKTEDTAVYYCRYVHYGAYYGVDAWGQGTTVTVSSASTKGPSVFPLAPSSKSTSGGTAALGCLVKDYFPEPVTVSWNSGALTSGVHTFPAVLQSSGLYSLSSVVTVPSSSLGTQTYICNVNHKPSNTKVDKKVEPKSCDKTHTCPPCPAPEAAGGPSVFLFPPKPKDTLMISRTPEVTCVVVDVSHEDPEVKFNWYVDGVEVHNAKTKPREEQYASTYRVVSVLTVLHQDWLNGKEYKCKVSNKALPAPIEKTISKAKGQPREPQVYTLPPSRCELTKNQVSLSCAVKGFYPSDIAVEWESNGQPENNYKTTPPVLDSDGSFFLVSKLTVDKSRWQQGNVFSCSVMHEALHNHYTQKSLSLSPDYKDDDDK
chain: EPKSSDKTHTCPPCPAPELLGGPSVFLFPPKPKDTLMISRTPEVTCVVVDVSHEDPEVKFNWYVDGVEVHNAKTKPREEQYNSTYRVVSVLTVLHQDWLNGKEYKCKVSNKALPAPIEKTISKAKGQPREPQVCTLPPSRDELTKNQVSLWCLVKGFYPSDIAVEWESNGQPENNYKTTPPVLDSDGSFFLYSKLTVDKSRWQQGNVFSCSVMHEALHNRYTQKSLSLSP
light: DIVMTQSPLSLPVTPGEPASISCRSSQSLVHSNRNTYLHWYQQKPGQAPRLLIYKGSNRFSGVPDRFSGSGSGTDFTLKISRVEAEDVGVYYCGQGTQVPYTFGQGTKLEIKRTVAAPSVFIFPPSDEQLKSGTASVVCLLNNFYPREAKVQWKVDNALQSGNSQESVTEQDSKDSTYSLSSTLTLSKADYEKHKVYACEVTHQGLSSPVTKSFNRGEC
notes: one-arm IgG1
B2: CE115HA000/GLS3000 V94D one-arm antibody (antibody, human IgG1, kappa, L234A L235A, N297A, name in Kabat numbering)
heavy: QVQLVESGGGVVQPGRSLRLSCAASGFTFSNAWMHWVRQAPGKGLEWVAQIKAKSNNYATYYAESVKGRFTISRDDSKNSLYLQMNSLKTEDTAVYYCRYVHYGAYYGVDAWGQGTTVTVSSASTKGPSVFPLAPSSKSTSGGTAALGCLVKDYFPEPVTVSWNSGALTSGVHTFPAVLQSSGLYSLSSVVTVPSSSLGTQTYICNVNHKPSNTKVDKKVEPKSCDKTHTCPPCPAPEAAGGPSVFLFPPKPKDTLMISRTPEVTCVVVDVSHEDPEVKFNWYVDGVEVHNAKTKPREEQYASTYRVVSVLTVLHQDWLNGKEYKCKVSNKALPAPIEKTISKAKGQPREPQVYTLPPSRCELTKNQVSLSCAVKGFYPSDIAVEWESNGQPENNYKTTPPVLDSDGSFFLVSKLTVDKSRWQQGNVFSCSVMHEALHNHYTQKSLSLSPDYKDDDDK
chain: EPKSSDKTHTCPPCPAPELLGGPSVFLFPPKPKDTLMISRTPEVTCVVVDVSHEDPEVKFNWYVDGVEVHNAKTKPREEQYNSTYRVVSVLTVLHQDWLNGKEYKCKVSNKALPAPIEKTISKAKGQPREPQVCTLPPSRDELTKNQVSLWCLVKGFYPSDIAVEWESNGQPENNYKTTPPVLDSDGSFFLYSKLTVDKSRWQQGNVFSCSVMHEALHNRYTQKSLSLSP
light: DIVMTQSPLSLPVTPGEPASISCRSSQSLVHSNRNTYLHWYQQKPGQAPRLLIYKVSNRFSGVPDRFSGSGSGTDFTLKISRVEAEDVGVYYCGQGTQDPYTFGQGTKLEIKRTVAAPSVFIFPPSDEQLKSGTASVVCLLNNFYPREAKVQWKVDNALQSGNSQESVTEQDSKDSTYSLSSTLTLSKADYEKHKVYACEVTHQGLSSPVTKSFNRGEC
notes: one-arm IgG1
B3: CE115HA000/GLS3000 V94E one-arm antibody (antibody, human IgG1, kappa, L234A L235A, N297A, name in Kabat numbering)
heavy: QVQLVESGGGVVQPGRSLRLSCAASGFTFSNAWMHWVRQAPGKGLEWVAQIKAKSNNYATYYAESVKGRFTISRDDSKNSLYLQMNSLKTEDTAVYYCRYVHYGAYYGVDAWGQGTTVTVSSASTKGPSVFPLAPSSKSTSGGTAALGCLVKDYFPEPVTVSWNSGALTSGVHTFPAVLQSSGLYSLSSVVTVPSSSLGTQTYICNVNHKPSNTKVDKKVEPKSCDKTHTCPPCPAPEAAGGPSVFLFPPKPKDTLMISRTPEVTCVVVDVSHEDPEVKFNWYVDGVEVHNAKTKPREEQYASTYRVVSVLTVLHQDWLNGKEYKCKVSNKALPAPIEKTISKAKGQPREPQVYTLPPSRCELTKNQVSLSCAVKGFYPSDIAVEWESNGQPENNYKTTPPVLDSDGSFFLVSKLTVDKSRWQQGNVFSCSVMHEALHNHYTQKSLSLSPDYKDDDDK
chain: EPKSSDKTHTCPPCPAPELLGGPSVFLFPPKPKDTLMISRTPEVTCVVVDVSHEDPEVKFNWYVDGVEVHNAKTKPREEQYNSTYRVVSVLTVLHQDWLNGKEYKCKVSNKALPAPIEKTISKAKGQPREPQVCTLPPSRDELTKNQVSLWCLVKGFYPSDIAVEWESNGQPENNYKTTPPVLDSDGSFFLYSKLTVDKSRWQQGNVFSCSVMHEALHNRYTQKSLSLSP
light: DIVMTQSPLSLPVTPGEPASISCRSSQSLVHSNRNTYLHWYQQKPGQAPRLLIYKVSNRFSGVPDRFSGSGSGTDFTLKISRVEAEDVGVYYCGQGTQEPYTFGQGTKLEIKRTVAAPSVFIFPPSDEQLKSGTASVVCLLNNFYPREAKVQWKVDNALQSGNSQESVTEQDSKDSTYSLSSTLTLSKADYEKHKVYACEVTHQGLSSPVTKSFNRGEC
notes: one-arm IgG1
B4: CE115HA000/GLS3000 V51I one-arm antibody (antibody, human IgG1, kappa, L234A L235A, N297A, name in Kabat numbering)
heavy: QVQLVESGGGVVQPGRSLRLSCAASGFTFSNAWMHWVRQAPGKGLEWVAQIKAKSNNYATYYAESVKGRFTISRDDSKNSLYLQMNSLKTEDTAVYYCRYVHYGAYYGVDAWGQGTTVTVSSASTKGPSVFPLAPSSKSTSGGTAALGCLVKDYFPEPVTVSWNSGALTSGVHTFPAVLQSSGLYSLSSVVTVPSSSLGTQTYICNVNHKPSNTKVDKKVEPKSCDKTHTCPPCPAPEAAGGPSVFLFPPKPKDTLMISRTPEVTCVVVDVSHEDPEVKFNWYVDGVEVHNAKTKPREEQYASTYRVVSVLTVLHQDWLNGKEYKCKVSNKALPAPIEKTISKAKGQPREPQVYTLPPSRCELTKNQVSLSCAVKGFYPSDIAVEWESNGQPENNYKTTPPVLDSDGSFFLVSKLTVDKSRWQQGNVFSCSVMHEALHNHYTQKSLSLSPDYKDDDDK
chain: EPKSSDKTHTCPPCPAPELLGGPSVFLFPPKPKDTLMISRTPEVTCVVVDVSHEDPEVKFNWYVDGVEVHNAKTKPREEQYNSTYRVVSVLTVLHQDWLNGKEYKCKVSNKALPAPIEKTISKAKGQPREPQVCTLPPSRDELTKNQVSLWCLVKGFYPSDIAVEWESNGQPENNYKTTPPVLDSDGSFFLYSKLTVDKSRWQQGNVFSCSVMHEALHNRYTQKSLSLSP
light: DIVMTQSPLSLPVTPGEPASISCRSSQSLVHSNRNTYLHWYQQKPGQAPRLLIYKISNRFSGVPDRFSGSGSGTDFTLKISRVEAEDVGVYYCGQGTQVPYTFGQGTKLEIKRTVAAPSVFIFPPSDEQLKSGTASVVCLLNNFYPREAKVQWKVDNALQSGNSQESVTEQDSKDSTYSLSSTLTLSKADYEKHKVYACEVTHQGLSSPVTKSFNRGEC
notes: one-arm IgG1
B5: CE115HA000/GLS3000 V51P one-arm antibody (antibody, human IgG1, kappa, L234A L235A, N297A, name in Kabat numbering)
heavy: QVQLVESGGGVVQPGRSLRLSCAASGFTFSNAWMHWVRQAPGKGLEWVAQIKAKSNNYATYYAESVKGRFTISRDDSKNSLYLQMNSLKTEDTAVYYCRYVHYGAYYGVDAWGQGTTVTVSSASTKGPSVFPLAPSSKSTSGGTAALGCLVKDYFPEPVTVSWNSGALTSGVHTFPAVLQSSGLYSLSSVVTVPSSSLGTQTYICNVNHKPSNTKVDKKVEPKSCDKTHTCPPCPAPEAAGGPSVFLFPPKPKDTLMISRTPEVTCVVVDVSHEDPEVKFNWYVDGVEVHNAKTKPREEQYASTYRVVSVLTVLHQDWLNGKEYKCKVSNKALPAPIEKTISKAKGQPREPQVYTLPPSRCELTKNQVSLSCAVKGFYPSDIAVEWESNGQPENNYKTTPPVLDSDGSFFLVSKLTVDKSRWQQGNVFSCSVMHEALHNHYTQKSLSLSPDYKDDDDK
chain: EPKSSDKTHTCPPCPAPELLGGPSVFLFPPKPKDTLMISRTPEVTCVVVDVSHEDPEVKFNWYVDGVEVHNAKTKPREEQYNSTYRVVSVLTVLHQDWLNGKEYKCKVSNKALPAPIEKTISKAKGQPREPQVCTLPPSRDELTKNQVSLWCLVKGFYPSDIAVEWESNGQPENNYKTTPPVLDSDGSFFLYSKLTVDKSRWQQGNVFSCSVMHEALHNRYTQKSLSLSP
light: DIVMTQSPLSLPVTPGEPASISCRSSQSLVHSNRNTYLHWYQQKPGQAPRLLIYKPSNRFSGVPDRFSGSGSGTDFTLKISRVEAEDVGVYYCGQGTQVPYTFGQGTKLEIKRTVAAPSVFIFPPSDEQLKSGTASVVCLLNNFYPREAKVQWKVDNALQSGNSQESVTEQDSKDSTYSLSSTLTLSKADYEKHKVYACEVTHQGLSSPVTKSFNRGEC
notes: one-arm IgG1
B6: CE115HA000/GLS3000 V94A one-arm antibody (antibody, human IgG1, kappa, L234A L235A, N297A, name in Kabat numbering)
heavy: QVQLVESGGGVVQPGRSLRLSCAASGFTFSNAWMHWVRQAPGKGLEWVAQIKAKSNNYATYYAESVKGRFTISRDDSKNSLYLQMNSLKTEDTAVYYCRYVHYGAYYGVDAWGQGTTVTVSSASTKGPSVFPLAPSSKSTSGGTAALGCLVKDYFPEPVTVSWNSGALTSGVHTFPAVLQSSGLYSLSSVVTVPSSSLGTQTYICNVNHKPSNTKVDKKVEPKSCDKTHTCPPCPAPEAAGGPSVFLFPPKPKDTLMISRTPEVTCVVVDVSHEDPEVKFNWYVDGVEVHNAKTKPREEQYASTYRVVSVLTVLHQDWLNGKEYKCKVSNKALPAPIEKTISKAKGQPREPQVYTLPPSRCELTKNQVSLSCAVKGFYPSDIAVEWESNGQPENNYKTTPPVLDSDGSFFLVSKLTVDKSRWQQGNVFSCSVMHEALHNHYTQKSLSLSPDYKDDDDK
chain: EPKSSDKTHTCPPCPAPELLGGPSVFLFPPKPKDTLMISRTPEVTCVVVDVSHEDPEVKFNWYVDGVEVHNAKTKPREEQYNSTYRVVSVLTVLHQDWLNGKEYKCKVSNKALPAPIEKTISKAKGQPREPQVCTLPPSRDELTKNQVSLWCLVKGFYPSDIAVEWESNGQPENNYKTTPPVLDSDGSFFLYSKLTVDKSRWQQGNVFSCSVMHEALHNRYTQKSLSLSP
light: DIVMTQSPLSLPVTPGEPASISCRSSQSLVHSNRNTYLHWYQQKPGQAPRLLIYKVSNRFSGVPDRFSGSGSGTDFTLKISRVEAEDVGVYYCGQGTQAPYTFGQGTKLEIKRTVAAPSVFIFPPSDEQLKSGTASVVCLLNNFYPREAKVQWKVDNALQSGNSQESVTEQDSKDSTYSLSSTLTLSKADYEKHKVYACEVTHQGLSSPVTKSFNRGEC
notes: one-arm IgG1

These binders were tested against T1, CD3 epsilon homodimer protein (UniProt P07766 23-126) (assay: SPR (Biacore T200), CD3e homodimer on CM4 chip, antibody as analyte; KD ratio vs unaltered GLS3000;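 also: CD3 epsilon homodimer amine-coupled to the sensor surface, antibodies injected as analyte at 25 °C with HBS-EP+ running buffer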).
T1 construct: also called CD3 (CD3 epsilon)
T1 sequence (P07766 23-126): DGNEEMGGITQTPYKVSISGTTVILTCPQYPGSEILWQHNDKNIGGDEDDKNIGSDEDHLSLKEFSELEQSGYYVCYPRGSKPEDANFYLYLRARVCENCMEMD
B1 was tested, and the “KD ratio to GLS3000” value was 0.83 ratio. For B2, the “KD ratio to GLS3000” value was 1.05 ratio. In the case of B3, the “KD ratio to GLS3000” value is reported as 1.18 ratio. With B4 the “KD ratio to GLS3000” value was 0.69 ratio. B5 was tested, and the “KD ratio to GLS3000” value was 6 ratio. For B6, the “KD ratio to GLS3000” value was 1.05 ratio.
